The chains are these.
B1: GFP-HMGA1 (WT) [human] / mCherry-LacI-CHFR [human] (parent)
chain 1: MSESSSKSSQPLASKQEKDGTEKRGRGRPRKQPPVSPGTALVGSQKEPSEVPTPKRPRGRPKGSKNKGAAKTRKTTTTPGRKPRGRPKKLEKEEEEGISQESSEEEQ
chain 2: MERPEEGKQSPPPQPWGRLLRLGAEEGEPHVLLRKREWTIGRRRGCDLSFPSNKLVSGDHCRIVVDEKSGQVTLEDTSTSGTVINKLKVVKKQTCPLQTGDVIYLVYRKNEPEHNVAYLYESLSEKQGMTQESFEANKENVFHGTKDTSGAGAGRGADPRVPPSSPATQVCFEEPQPSTSTSDLFPTASASSTEPSPAGRERSSSCGSGGGGISPKGSGPSVASDEVSSFASALPDRKTASFSSLEPQDQEDLEPVKKKMRGDGDLDLNGQLLVAQPRRNAQTVHEDVRAAAGKPDKMEETLTCIICQDLLHDCVSLQPCMHTFCAACYSGWMERSSLCPTCRCPVERICKNHILNNLVEAYLIQHPDKSRSEEDVQSMDARNKITQDMLQPKVRRSFSDEEGSSEDLLELSDVDSESSDISQPYVVCRQCPEYRRQAAQPPHCPAPEGEPGAPQALGDAPSTSVSLTTAVQDYVCPLQGSHALCTCCFQPMPDRRAEREQDPRVAPQQCAVCLQPFCHLYWGCTRTGCYGCLAPFCELNLGDKCLDGVLNNNSYESDILKNYLATRGLTWKNMLTESLVALQRGVFLLSDYRVTGDTVLCYCCGLRSFRELTYQYRQNIPASELPVAVTSRPDCYWGRNCRTQVKAHHAMKFNHICEQTRFKN

Variants of B1 are the subject of this test. In words: LacI-LacO fluorescence colocalization assay (GFP-HMGA1 foci intensity at LacO array, ImageJ). The following applies: with mCherry-LacI-CHFR [human]; U2OS-265 cells cotransfected for 24 h; parent: 1.5; read off a plot.
Take chain 1 E50Q: the response was 1.

The values are drawn from paper PMC12151214.
